According to US20220178930A1:
Values joined by “and” are separate entries in the source; they are usually repeats but may differ in a detail not shown here. Identical values can stand only once.

Experiments:
[1] = biological target: Galectin-9 (human) (UniProt O00182); assay: flow cytometry, CD3+ T cells, S2 single cell fraction, CRC
[2] = biological target: Galectin-9 (human) (UniProt O00182); assay: flow cytometry, EPCAM+ tumor cells, S3 organoid fraction, CRC
[3] = biological target: Galectin-9 (human) (UniProt O00182); assay: flow cytometry, EPCAM+ tumor cells, S3 organoid fraction, HCC
[4] = biological target: Galectin-9 (human) (UniProt O00182); assay: flow cytometry, CD3+ T cells, S2 single cell fraction, Pancreas NET
[5] = biological target: Galectin-9 (human) (UniProt O00182); assay: flow cytometry, CD3+ T cells, S3 organoid fraction, Pancreas NET
[6] = biological target: Galectin-9 (human) (UniProt O00182); assay: flow cytometry, EPCAM+ tumor cells, S3 organoid fraction, CRC liver metastasis
[7] = biological target: Galectin-9 (human) (UniProt O00182); assay: flow cytometry, CD3+ T cells, S3 organoid fraction, CRC
[8] = biological target: Galectin-9 (human) (UniProt O00182); assay: flow cytometry, CD11b+ myeloid cells, S2 single cell fraction, CRC
[9] = biological target: Galectin-9 (human) (UniProt O00182); assay: flow cytometry, EPCAM+ tumor cells, S3 organoid fraction, PDA
[10] = biological target: Galectin-9 (human) (UniProt O00182); assay: flow cytometry, CD11b+ myeloid cells, S2 single cell fraction, CRC liver metastasis
[11] = biological target: Galectin-9 (human) (UniProt O00182); assay: flow cytometry, CD11b+ myeloid cells, S2 single cell fraction, PDA
[12] = biological target: Galectin-9 (human) (UniProt O00182); assay: flow cytometry, CD3+ T cells, S2 single cell fraction, PDA
[13] = biological target: Galectin-9 (human) (UniProt O00182); assay: flow cytometry, CD11b+ myeloid cells, S3 organoid fraction, Pancreas NET
[14] = biological target: Galectin-9 (human) (UniProt O00182); assay: flow cytometry, CD11b+ myeloid cells, S3 organoid fraction, CRC
[15] = biological target: Galectin-9 (human) (UniProt O00182); assay: flow cytometry, EPCAM+ tumor cells, S2 single cell fraction, CRC liver metastasis
[16] = biological target: Galectin-9 (human) (UniProt O00182); assay: flow cytometry, CD11b+ myeloid cells, S3 organoid fraction, HCC
[17] = biological target: Galectin-9 (human) (UniProt O00182); assay: flow cytometry, CD3+ T cells, S3 organoid fraction, HCC
[18] = biological target: Galectin-9 (human) (UniProt O00182); assay: flow cytometry, CD3+ T cells, S3 organoid fraction, PDA
[19] = biological target: Galectin-9 (human) (UniProt O00182); assay: flow cytometry, CD11b+ myeloid cells, S2 single cell fraction, Pancreas NET
[20] = biological target: Galectin-9 (human) (UniProt O00182); assay: flow cytometry, EPCAM+ tumor cells, S3 organoid fraction, Liver NET
[21] = biological target: Galectin-9 (human) (UniProt O00182); assay: flow cytometry, CD3+ T cells, S3 organoid fraction, CRC liver metastasis
[22] = biological target: Galectin-9 (human) (UniProt O00182); assay: flow cytometry, EPCAM+ tumor cells, S2 single cell fraction, CRC
[23] = biological target: Galectin-9 (human) (UniProt O00182); assay: flow cytometry, CD11b+ myeloid cells, S3 organoid fraction, CRC liver metastasis
[24] = biological target: Galectin-9 (human) (UniProt O00182); assay: flow cytometry, EPCAM+ tumor cells, S3 organoid fraction, Pancreas NET
[25] = biological target: Galectin-9 (human) (UniProt O00182); assay: flow cytometry, CD3+ T cells, S2 single cell fraction, CRC liver metastasis
[26] = biological target: Galectin-9 (human) (UniProt O00182); assay: flow cytometry, EPCAM+ tumor cells, S2 single cell fraction, PDA
[27] = biological target: Galectin-9 (human) (UniProt O00182); assay: flow cytometry, CD11b+ myeloid cells, S3 organoid fraction, PDA
[28] = biological target: Galectin-9 (human) (UniProt O00182); assay: flow cytometry, EPCAM+ tumor cells, S2 single cell fraction, Pancreas NET
[29] = biological target: Galectin-9 (human) (UniProt O00182); assay: flow cytometry, EPCAM+ tumor cells, S2 single cell fraction, Liver NET

Chain of Galectin-9 (human) (O00182 whole entry): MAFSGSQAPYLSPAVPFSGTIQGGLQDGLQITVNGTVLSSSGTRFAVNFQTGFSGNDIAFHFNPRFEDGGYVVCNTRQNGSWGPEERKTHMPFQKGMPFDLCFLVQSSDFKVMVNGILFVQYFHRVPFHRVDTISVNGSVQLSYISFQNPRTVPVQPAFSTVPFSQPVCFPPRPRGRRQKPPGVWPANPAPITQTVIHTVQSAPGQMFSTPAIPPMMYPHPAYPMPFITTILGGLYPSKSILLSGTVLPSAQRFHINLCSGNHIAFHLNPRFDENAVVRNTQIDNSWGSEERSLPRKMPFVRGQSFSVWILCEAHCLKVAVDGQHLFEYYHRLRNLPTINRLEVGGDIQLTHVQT

% Gal9 expression based on staining [1]: 2.5% and 1.59%
% Gal9 expression based on staining [2]: 0.21% and 2.27% and 0.55%
% Gal9 expression based on staining [3]: 5.84%
% Gal9 expression based on staining [4]: 32.2%
% Gal9 expression based on staining [5]: 4.96%
% Gal9 expression based on staining [6]: 0.06%
% Gal9 expression based on staining [7]: 0% and 15.3% and 0.87%
% Gal9 expression based on staining [8]: 2.86% and 5.84%
% Gal9 expression based on staining [9]: 0.17% and 0.94%
% Gal9 expression based on staining [10]: 1.2%
% Gal9 expression based on staining [11]: 1.19% and 0%
% Gal9 expression based on staining [12]: 0% and 0.52%
% Gal9 expression based on staining [13]: 1.87%
% Gal9 expression based on staining [14]: 0.38% and 11.8% and 2.4%
% Gal9 expression based on staining [15]: 0.15%
% Gal9 expression based on staining [16]: 1.72%
% Gal9 expression based on staining [17]: 1.14%
% Gal9 expression based on staining [18]: 0% and 0.59%
% Gal9 expression based on staining [19]: 16.2%
% Gal9 expression based on staining [20]: 0.02%
% Gal9 expression based on staining [21]: 0%
% Gal9 expression based on staining [22]: 0.64% and 3.97%
% Gal9 expression based on staining [23]: 1.5%
% Gal9 expression based on staining [24]: 4.19%
% Gal9 expression based on staining [25]: 0.56%
% Gal9 expression based on staining [26]: 0.15% and 0.88%
% Gal9 expression based on staining [27]: 3.83% and 0.54%
% Gal9 expression based on staining [28]: 2.41%
% Gal9 expression based on staining [29]: 0.45%
Substance: Fab isotype
